Measurements as given in US20200017549A1, “NOVEL a4B7 PEPTIDE ANTAGONISTS” (Protagonist Therapeutics, Inc., priority 2013, published 2020).
Bridge positions count the residues as written; N and C are the ends. Square brackets hold non-standard residues; d marks the D form. Ends that are not written are not given here. NMeR = CN[C@@H](CCCNC(=N)N)C(=O)O

Target: T1, α4β7 (RPMI 8866 cells) (Homo sapiens, UniProt P13612+P26010)
T1 construct: host or cells: RPMI 8866 cells
T1 sequence (P13612 34-1032): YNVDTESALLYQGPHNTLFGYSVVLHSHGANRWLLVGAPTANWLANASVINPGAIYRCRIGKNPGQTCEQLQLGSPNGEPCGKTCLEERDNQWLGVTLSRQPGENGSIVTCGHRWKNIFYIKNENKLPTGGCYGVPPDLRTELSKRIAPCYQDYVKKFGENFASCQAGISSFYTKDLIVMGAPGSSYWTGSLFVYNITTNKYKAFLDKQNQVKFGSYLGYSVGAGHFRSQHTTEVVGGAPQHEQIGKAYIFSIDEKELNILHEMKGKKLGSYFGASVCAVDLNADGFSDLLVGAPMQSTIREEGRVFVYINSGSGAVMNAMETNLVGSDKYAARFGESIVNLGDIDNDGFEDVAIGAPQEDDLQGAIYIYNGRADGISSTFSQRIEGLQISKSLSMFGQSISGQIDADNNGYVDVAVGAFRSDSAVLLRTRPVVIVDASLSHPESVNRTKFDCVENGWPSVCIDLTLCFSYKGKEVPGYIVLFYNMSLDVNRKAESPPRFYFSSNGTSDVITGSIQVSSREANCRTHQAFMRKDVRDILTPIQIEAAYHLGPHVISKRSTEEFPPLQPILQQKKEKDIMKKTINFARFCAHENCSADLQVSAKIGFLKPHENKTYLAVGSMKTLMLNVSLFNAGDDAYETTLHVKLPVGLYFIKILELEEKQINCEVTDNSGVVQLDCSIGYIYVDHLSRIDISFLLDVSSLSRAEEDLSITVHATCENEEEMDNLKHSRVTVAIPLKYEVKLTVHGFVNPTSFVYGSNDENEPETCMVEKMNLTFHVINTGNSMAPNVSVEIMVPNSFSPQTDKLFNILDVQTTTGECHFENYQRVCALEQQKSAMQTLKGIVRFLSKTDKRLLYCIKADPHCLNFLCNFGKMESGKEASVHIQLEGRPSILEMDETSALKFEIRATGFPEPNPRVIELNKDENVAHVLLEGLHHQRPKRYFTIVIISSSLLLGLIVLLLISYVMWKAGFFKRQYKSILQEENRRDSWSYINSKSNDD
T1 sequence (P26010 20-798): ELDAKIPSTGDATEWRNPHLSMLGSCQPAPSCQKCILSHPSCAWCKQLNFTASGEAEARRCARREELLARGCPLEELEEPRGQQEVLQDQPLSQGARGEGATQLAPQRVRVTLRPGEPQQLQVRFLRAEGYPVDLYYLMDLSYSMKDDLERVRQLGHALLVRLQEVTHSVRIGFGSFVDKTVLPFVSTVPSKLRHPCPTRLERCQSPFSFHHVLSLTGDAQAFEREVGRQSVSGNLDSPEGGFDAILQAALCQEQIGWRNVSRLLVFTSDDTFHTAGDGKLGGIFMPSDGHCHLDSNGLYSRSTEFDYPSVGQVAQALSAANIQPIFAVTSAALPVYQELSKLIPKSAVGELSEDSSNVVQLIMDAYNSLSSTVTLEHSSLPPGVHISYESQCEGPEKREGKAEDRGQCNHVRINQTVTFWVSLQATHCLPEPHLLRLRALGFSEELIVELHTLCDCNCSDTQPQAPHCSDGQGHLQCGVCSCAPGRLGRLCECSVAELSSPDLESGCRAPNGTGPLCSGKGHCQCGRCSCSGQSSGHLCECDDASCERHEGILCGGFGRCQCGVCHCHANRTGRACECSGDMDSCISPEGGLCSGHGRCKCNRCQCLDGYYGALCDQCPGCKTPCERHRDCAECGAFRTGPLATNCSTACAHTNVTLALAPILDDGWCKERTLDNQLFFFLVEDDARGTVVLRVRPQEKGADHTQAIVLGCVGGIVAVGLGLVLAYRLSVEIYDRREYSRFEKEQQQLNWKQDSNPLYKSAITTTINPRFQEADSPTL
Assay: α4β7-MAdCAM Cell Adhesion Assay
Type: cell-based
Conditions: N-Me-Arg substituted, as compared to SEQ ID NO:39
Protocol: α4β7-MAdCAM Cell Adhesion Assay
RPMI 8866 cells (Sigma #95041316) are cultured in RPMI 1640 HEPES medium (Invitrogen #22400-089) supplemented with 10% serum (Fetal Bovine Serum, Invitrogen # 16140-071), 1 mM sodium pyruvate (Invitrogen #11360-070), 2 mM L-glutamine (Invitrogen # 25030-081) and Penicillin-Streptomycin (Invitrogen # 15140-122) at 100 units of penicillin and 100 μg of streptomycin per ml. The cells are washed two times in DMEM medium (ATCC #30-2002) supplemented with 0.1% BSA, 10 mM HEPES pH 7 and 1 mM MnCl2. The cells are re-suspended in supplemented DMEM medium at a density of 4×10^6 cells/ml.
A Nunc MaxiSorp plate was coated with rh MAdCAM-1/Fc Chimera (R&D #6065-MC) at 200 ng per well in 50 ul per well in 1×PBS and incubated at 4° C. overnight. The solution was then removed by shaking, blocked with 250 ul per well PBS containing 1% BSA, and incubated at 37° C. for 1 hr. The solution was removed by shaking. peptides are diluted by serial dilution in a final volume of 50 ul per well (2× concentration). To each well, 50 ul of cells (200,000 cells) are added and the plate is incubated at 37° C., 5% CO2 for 30-45 min to allow cell adhesion. […] The plate is shaken for 5 min and the absorbance at 570 nm is measured. To calculate the dose response, the absorbance value of control wells not containing cells is subtracted from each test well.

Substance: SEQ ID NO: 48: integrin antagonist peptide substituted with N-Me-Arg (C[NMeR]SDTLCK; disulfide 1-7)
- potency for α4β7 in cell adhesion assay: increased potency
